Where “and” joins values, the source holds several entries; their conditions need not be identical. Equal entries are not always repeated.

The values below come from publication PMC7409301, “Natural Killer Cell Activation Receptor NKp30 Oligomerization Depends on Its N-Glycosylation” (Cancers, 2020).

Data set [1] addresses NKp30_Stalk, uniform simple N-glycans (expressed in HEK293S GnTI^−) (human) (UniProt O14931). Kind of data set: SPR; NKp30_Stalk monomer. Particulars: domain or fragment. (SPR reads the build-up and loss of mass on a sensor chip optically.)
The target of data set [2] is B7-H6 C212S extracellular portion, wild-type N-glycosylation (expressed in HEK293T) (UniProt Q68D85). Kind of data set: ITC; NKp30_Stalk oligomer. The conditions noted are these: domain or fragment.
For data set [3] the target is unchanged. Kind of data set: ITC; NKp30_Stalk monomer. The conditions noted are these: domain or fragment. For orientation: Isothermal titration calorimetry measures the heat released or taken up as one component is titrated into another.
The target in data set [4] is B7-H6 C212S extracellular portion, uniform simple N-glycans (expressed in HEK293S GnTI^−) (UniProt Q68D85). Kind of data set: SPR; NKp30_Stalk oligomer. Particulars: domain or fragment.
Data set [5] has the same target. Kind of data set: SPR; NKp30_Stalk monomer. The conditions noted are these: domain or fragment.
For data set [6], the target named is B7-H6 C212S extracellular portion, wild-type N-glycosylation (expressed in HEK293T) (UniProt Q68D85). Kind of data set: ITC; NKp30_Stalk monomer. The conditions noted are these: domain or fragment. This is another data set of the same source.
In data set [7] the target is NKp30_Stalk, wild-type N-glycosylation (expressed in HEK293T) (human) (UniProt O14931). The data set is described as follows: AUC; sedimentation velocity of glycosylated and deglycosylated NKp30_Stalk oligomers, 20 μM, 20 °C, 10 mM HEPES pH 7.5, 150 mM NaCl, 10 mM NaN3, 36,000 or 48,000 rpm.
For data set [8], the target named is NKp30_LBD (Ligand Binding Domain), glycosylation state not told in the text for the experiment (human) (UniProt O14931). The data set is described as follows: AUC; NKp30_LBD at high concentration, 20 mg/mL, 50,000 rpm, 3 mm centerpiece, interference optics, nonideal c(s) model.
Data set [9] has as its target B7-H6 C212S extracellular portion, uniform simple N-glycans (expressed in HEK293S GnTI^−) (UniProt Q68D85). Kind of data set: SPR. The conditions noted are these: domain or fragment.
Data set [10] deals with NKp30_Stalk, uniform simple N-glycans (expressed in HEK293S GnTI^−) (human) (UniProt O14931). Kind of data set: SPR; NKp30_Stalk monomer. Particulars: domain or fragment. This is another data set of the same source.
Data set [11] concerns the target NKp30_Stalk, deglycosylated with endoglycosidase Endo F1 (human) (UniProt O14931). Kind of data set: SPR. The conditions noted are these: domain or fragment.
Data set [12] has as its target NKp30_Stalk, uniform simple N-glycans (expressed in HEK293S GnTI^−) (human) (UniProt O14931). The data set is described as follows: SPR; NKp30_Stalk oligomer. Particulars: domain or fragment.
Data set [13] has as its target NKp30_Stalk, wild-type N-glycosylation (expressed in HEK293T) (human) (UniProt O14931). The data set is described as follows: SPR; NKp30_Stalk oligomer. Particulars: domain or fragment.
Data set [14] has the same target. The data set is described as follows: SPR; NKp30_Stalk monomer. Particulars: domain or fragment.
The target of data set [15] is B7-H6 C212S extracellular portion, glycosylation state not told in the text for the experiment (UniProt Q68D85). The data set is described as follows: SPR; as a7 but analyte is the oligomeric fraction of NKp30_Stalk; increase in affinity put down to the avidity of the oligomers.
Data set [16] shares this target. Kind of data set: SPR; Biacore T200; biotinylated B7-H6 on streptavidin sensor; analyte NKp30_LBD, deglycosylated NKp30_Stalk or the monomeric fraction of NKp30_Stalk, 1 nM to 16.3 μM, single cycle kinetics; 10 mM HEPES pH 7.5, 150 mM NaCl, 1 mg/mL dextran, 0.05% Tween-20; steady-state responses fitted with AB hetero-association model.
The target of the next data set is B7-H6 (Homo sapiens) (UniProt Q68D85). The conditions noted are these: cited from earlier work.
Data set [17] has as its target NKp30_Stalk, glycosylated, type of N-glycans not told in the text for the experiment (human) (UniProt O14931). The data set is described as follows: AUC; sedimentation velocity of the monomeric fraction of glycosylated NKp30_Stalk, of B7-H6 and of their equimolar mixture, 20 μM, 20 °C, HEPES buffer.
For data set [18], the target named is NKp30_Stalk, wild-type N-glycosylation (expressed in HEK293T) (human) (UniProt O14931). The data set is described as follows: ITC; as a9 but the oligomeric fraction of NKp30_Stalk in the cell.
The target is the same in data set [19]. Kind of data set: AUC; sedimentation velocity of the oligomeric fraction of NKp30_Stalk (HEK293T) with ATTO488-labelled B7-H6, read at 280 nm (total) and 480 nm (B7-H6 only), 20 °C.
Data set [20] concerns the target T1, B7-H6 C212S extracellular portion, uniform simple N-glycans (expressed in HEK293S GnTI^−) (UniProt Q68D85 25-245, C212S, uniform Asn-GlcNAc2Man5 N-glycans; biotinylated with EZ-Link NHS-Biotin for SPR; labelled with ATTO 488-NHS ester for the two-wavelength sedimentation analysis).
T1 sequence: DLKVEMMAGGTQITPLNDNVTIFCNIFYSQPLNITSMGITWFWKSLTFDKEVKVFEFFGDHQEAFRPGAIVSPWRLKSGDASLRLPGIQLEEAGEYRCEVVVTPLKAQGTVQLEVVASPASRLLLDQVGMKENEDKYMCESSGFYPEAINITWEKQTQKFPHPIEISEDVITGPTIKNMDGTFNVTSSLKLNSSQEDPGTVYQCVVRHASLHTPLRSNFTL
The data set is described as follows: SPR.

For data set [21], the target named is T2, B7-H6 C212S extracellular portion, wild-type N-glycosylation (expressed in HEK293T) (UniProt Q68D85 25-245, C212S, complex wild-type N-glycans (HEK293T); biotinylated with EZ-Link NHS-Biotin for SPR).
T2 sequence: T1 sequence
The data set is described as follows: ITC.

Data set [22] can be described thus: sedimentation velocity AUC. Particulars: glycan changed form; control: NKp30_Stalk from HEK293S GnTI− (uniform glycans).

As usually defined, the Kd is the free concentration of one partner at which half of the binding sites on the other are occupied at equilibrium, for simple one-to-one binding. Take “B7-H6 C212S extracellular portion, deglycosylated with endoglycosidase Endo F1 (from UniProt Q68D85 25-245)”: the Kd in data set [1] is 380 nM.
For “NKp30_Stalk, uniform simple N-glycans (expressed in HEK293S GnTI^−) (from UniProt O14931 19-135)”, the Kd in [2] was determined as 1000 nM; in data set [3], 970 nM; in [4] it was 70 nM; in [5], 370 nM; in data set [6], 960 nM.
For orientation: stoichiometry N means the number of molecules, sites or subunits per partner or assembly. As to “NKp30_Stalk, wild-type N-glycosylation (expressed in HEK293T) (from UniProt O14931 19-135) (domain or fragment)”, in data set [7], the stoichiometry N was 8 units and 16 units.
“B7-H6 C212S extracellular portion, wild-type N-glycosylation (expressed in HEK293T) (from UniProt Q68D85 25-245)” displayed a Kd in data set [1] of 370 nM.
For the molecule “NKp30_LBD (Ligand Binding Domain), glycosylation state not told in the text for the experiment (from UniProt O14931 19-130) (domain or fragment)”, the stoichiometry N in [8] was 2.
In the case of “NKp30_Stalk, deglycosylated with endoglycosidase Endo F1 (from UniProt O14931 19-135)”, the dissociation constant Kd in [9] amounted to 350 nM.
Take “B7-H6 C212S extracellular portion, uniform simple N-glycans (expressed in HEK293S GnTI^−) (from UniProt Q68D85 25-245)”: the dissociation constant Kd was 370 nM in data set [10]; 350 nM in data set [11]; 70 nM in data set [12]; 90 nM in [13]; 350 nM in data set [1]; 380 nM in data set [14].
For “NKp30_Stalk, wild-type N-glycosylation (expressed in HEK293T) (from UniProt O14931 19-135)”, the Kd in [2] was 830 nM; in data set [3] it was 590 nM; in [4], 90 nM; in data set [5], 380 nM.
In data set [15], “NKp30_Stalk, glycosylated, type of N-glycans not told in the text for the experiment (from UniProt O14931 19-135) (domain or fragment)” registered a fold stronger binding than NKp30 LBD of 10 fold and a fold stronger binding than the NKp30 Stalk monomeric fraction of 4 fold. Further, the fold higher affinity than NKp30 LBD in data set [16] amounted to 2 fold.
On to NKp30 (from UniProt O14931), for which the Kd with B7-H6 (Homo sapiens) is 1000 nM.

B1: B7-H6 C212S extracellular portion, glycosylation state not told in the text for the experiment (domain or fragment)
chain: T1 sequence
modifications: glycosylation state marked only in the figures; biotinylated with EZ-Link NHS-Biotin for SPR
In the case of B1, the stoichiometry N in [17] was determined as 1. The percent of NKp30 Stalk T oligomers accessible in [18] was in the range of 60 to 70%.

B2: B7-H6 C212S extracellular portion, uniform simple N-glycans (expressed in HEK293S GnTI^−) (domain or fragment)
chain: T1 sequence
modifications: uniform Asn-GlcNAc2Man5 N-glycans; biotinylated with EZ-Link NHS-Biotin for SPR; labelled with ATTO 488-NHS ester for the two-wavelength sedimentation analysis
B2: in [19], the percent of NKp30 binding sites occupied by B7-H6 in the oligomers stood at 60%. Also, the stoichiometry N in data set [19] (scale: B7-H6 molecules per eight NKp30 molecules) turned out to be 5.

B3: NKp30_LBD (Ligand Binding Domain), uniform simple N-glycans (expressed in HEK293S GnTI^−) (domain or fragment)
chain: LWVSQPPEIRTLEGSSAFLPCSFNASQGRLAIGSVTWFRDEVVPGKEVRNGTPEFRGRLAPLASSRFLHDHQAELHIRDVRGHDASIYVCRVEVLGLGVGTGNGTRLVVEKE
modifications: uniform Asn-GlcNAc2Man5 N-glycans; GlcNAc modelled at Asn42 in the crystal structure
For B3, the Kd in [20] stood at 1010 nM; in [21], 890 nM.

B4: NKp30_LBD (Ligand Binding Domain), wild-type N-glycosylation (expressed in HEK293T) (domain or fragment)
chain: B3 chain
modifications: complex wild-type N-glycans (HEK293T)
B4: the results for the dissociation constant Kd in [20] and in [21] were 910 nM and 770 nM, respectively.

B5: NKp30_LBD (Ligand Binding Domain), deglycosylated with endoglycosidase Endo F1 (domain or fragment)
chain: B3 chain
modifications: a single GlcNAc unit left at each N-glycosylation site after Endo F1
As for B5, the dissociation constant (Kd) in [20] was 690 nM; in data set [21], 550 nM.

B6: NKp30: HEK293T wild-type glycosylation (protein)
parent chain: MAWMLLLILIMVHPGSCALWVSQPPEIRTLEGSSAFLPCSFNASQGRLAIGSVTWFRDEVVPGKEVRNGTPEFRGRLAPLASSRFLHDHQAELHIRDVRGHDASIYVCRVEVLGLGVGTGNGTRLVVEKEHPQLGAGTVLLLRAGFYAVSFLSVAVGSTVYYQGKCLTWKGPRRQLPAVVPAPLPPPCGSSAHLLPPVPGG
B6: in data set [22], the oligomerisation entry is “changes, one dominant species of ca 8 units and with secondary species of ca 16 units”.
